These results are taken from patent US10829561B2, “Antibodies targeting quiescin sulfhydryl oxidase (QSOX1) and uses of same” (Yeda Research and Development Co. Ltd., priority 2015, dated 2020).

Test [1] concerns 4T1 murine mammary carcinoma. As to the kind of experiment: Murine 4T1 breast cancer model, tumor volume. Format: in vivo, BALB/c female mice. Particulars: 8 mg/kg doxorubicin once a week, intraperitoneal, vs control mice. The procedure:
4T1 mCherry cells were suspended in Hanks' Balanced Salt Solution at a concentration of 2.5×10^6 cells/ml and mixed 1:1 with Cultrex® Basement Membrane Extract. 250,000 cells were injected into the mammary fat pad of 45 BALB/c female mice. Animals were divided into 5 groups containing 9 animals each (as depicted in Table 1B, below). Treatments were administered by intraperitoneal injection, beginning 3 days after cell injection. Tumor dimensions (x,y,z) were measured with a caliper twice a week. Tumor volumes were calculated according to: […]. Animals were weighed once a week. Twenty days post cell injection all animals were sacrificed by CO2 asphyxiation. Tumors and lungs were removed into 4% formaldehyde solution and prepared for histology.
The ability of an antibody inhibiting MmQSOX1 to control tumor growth and metastasis was evaluated in vivo in the 4T1 murine mammary carcinoma breast cancer model previously described [Pulaski and Ostrand-Rosenberg (2001) Mouse 4T1 breast tumor model. Curr. Protoc. Immunol. Chapter 20, Unit 20.2.]. Mice were injected with 4T1 cells together with matrigel, which aided in formation of a localized tumor, and then divided into five groups (as described in Table 1B, above). […] Tumor volumes were measured twice a week. Animals were sacrificed after 20 days, and their tumors and lungs were removed for evaluation.

The target in test [2] is T1, RnQSOX1 (Rattus norvegicus, UniProt Q6IUU3).
T1 construct: made in house
T1 sequence (Q6IUU3 33-750): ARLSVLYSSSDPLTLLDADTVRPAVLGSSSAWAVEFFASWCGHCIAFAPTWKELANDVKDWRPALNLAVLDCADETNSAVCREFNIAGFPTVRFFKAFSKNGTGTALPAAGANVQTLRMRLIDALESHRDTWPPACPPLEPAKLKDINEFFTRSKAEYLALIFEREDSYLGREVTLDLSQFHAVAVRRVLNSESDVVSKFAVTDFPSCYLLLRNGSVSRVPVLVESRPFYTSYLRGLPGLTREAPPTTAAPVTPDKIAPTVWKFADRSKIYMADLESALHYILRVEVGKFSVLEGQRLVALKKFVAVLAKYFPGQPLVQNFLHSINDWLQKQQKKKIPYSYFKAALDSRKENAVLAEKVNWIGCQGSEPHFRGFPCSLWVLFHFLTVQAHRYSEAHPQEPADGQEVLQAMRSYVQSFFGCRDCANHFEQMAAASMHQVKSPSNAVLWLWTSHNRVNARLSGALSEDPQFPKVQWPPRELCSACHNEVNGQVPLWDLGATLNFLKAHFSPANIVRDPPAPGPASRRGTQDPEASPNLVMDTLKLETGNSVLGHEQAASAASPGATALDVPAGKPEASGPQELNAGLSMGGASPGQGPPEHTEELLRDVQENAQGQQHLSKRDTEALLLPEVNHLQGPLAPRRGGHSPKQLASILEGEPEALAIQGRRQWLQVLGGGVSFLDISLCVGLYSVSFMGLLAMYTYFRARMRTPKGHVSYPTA
Kind of test: Oxygen consumption assay of QSOX1 activity and inhibition (DTT substrate). The class given is biochemical. The following applies: even at 1 μM antibody, 10:1 molar ratio of antibody to enzyme. The procedure: (§1) Reactions were initiated by DTT injection, and oxygen consumption rates were obtained from initial slopes. […] Measurements were performed 3 times, and resulting rates were averaged. For each mutant, the rate in the presence of inhibitory antibody was divided by the rate in the absence of antibody to get percent activity.
(§2) Three mammalian QSOX1 enzymes, from common experimental organisms and having 78-79% sequence identity with HsQSOX1, were chosen: Mus musculus QSOX1 (MmQSOX1), Rattus norvegicus QSOX1 (RnQSOX1), and Cavia porcellus (CpQSOX1). Enzyme activity was assessed in an oxygen consumption assay on the model substrate dithiothreitol (DTT).

In test [3] the target is T2, CpQSOX1 (Cavia porcellus, UniProt O08841).
T2 construct: The CpQSOX1 protein spans residues 34-547 of Cavia porcellus QSOX1; His-tag with thrombin site (inferred from the pET-15b vector, NdeI/BamHI cloning); made in house; host or cells: E. coli
T2 sequence (O08841 34-547): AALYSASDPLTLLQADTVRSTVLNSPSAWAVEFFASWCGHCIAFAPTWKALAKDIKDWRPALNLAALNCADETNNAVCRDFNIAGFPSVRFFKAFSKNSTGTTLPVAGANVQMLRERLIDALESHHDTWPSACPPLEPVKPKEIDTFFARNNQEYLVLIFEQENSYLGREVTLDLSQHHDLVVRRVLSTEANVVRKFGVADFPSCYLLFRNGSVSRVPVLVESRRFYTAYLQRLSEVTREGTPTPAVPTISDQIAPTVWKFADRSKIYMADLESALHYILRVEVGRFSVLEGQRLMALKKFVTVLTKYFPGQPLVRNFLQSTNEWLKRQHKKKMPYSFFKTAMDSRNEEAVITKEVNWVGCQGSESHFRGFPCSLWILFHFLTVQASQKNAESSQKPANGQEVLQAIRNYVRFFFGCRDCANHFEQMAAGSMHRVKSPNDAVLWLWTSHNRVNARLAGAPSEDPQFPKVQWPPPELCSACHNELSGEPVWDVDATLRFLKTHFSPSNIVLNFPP
The description is as above. Format: biochemical. Particulars: even at 1 μM antibody, 10:1 molar ratio of antibody to enzyme. The procedure: as §1, §2

The test system of test [4] is mouse embryonic fibroblasts (MEFs). As to the kind of experiment: Epithelial cell adhesion to mouse fibroblast monolayer. Format: cell-based. The following applies: 250 nM or 1 μM antibody; HEK 293T adhering cells. As to the method:
(§3) The assays were conducted essentially as previously described [Ilani T. et al. (2013), supra]. Instead of human fibroblasts, mouse fibroblasts were grown for three days in the presence of various antibodies. HEK 293T cells were used as adhering cells.
(§4) QSOX1 and laminin are secreted from quiescent fibroblasts into the ECM, where QSOX1 promotes laminin incorporation, and consequently the adherence of epithelial cells to the fibroblast monolayer. Thus, intact laminin networks in the ECM and cell adherence indicate functional QSOX1 activity in the ECM [Ilani T. et al. (2013), supra]. Inventors first verified that MmQSOX1 is secreted from confluent mouse embryonic fibroblasts (MEFs) (FIG. 4A). Next, extracellular laminin secreted by MEFs grown for three days in the presence of MAb492.1, MAb316.1, or MAb492gen was stained. […] A quantitative assay of epithelial cell adhesion to MEF monolayers was performed next. Fluorescently labeled epithelial cells were added to MEFs grown in the absence or presence of the antibodies, and adherent cells were quantified.

The target in test [5] is T3, MmQSOX1 TLPG(138-141)VFPV mutant (Mus musculus, UniProt Q8BND5, G141V/L139F/T138V).
T3 construct: made in house
T3 sequence (Q8BND5 36-550 T138V/L139F/G141V limits assumed): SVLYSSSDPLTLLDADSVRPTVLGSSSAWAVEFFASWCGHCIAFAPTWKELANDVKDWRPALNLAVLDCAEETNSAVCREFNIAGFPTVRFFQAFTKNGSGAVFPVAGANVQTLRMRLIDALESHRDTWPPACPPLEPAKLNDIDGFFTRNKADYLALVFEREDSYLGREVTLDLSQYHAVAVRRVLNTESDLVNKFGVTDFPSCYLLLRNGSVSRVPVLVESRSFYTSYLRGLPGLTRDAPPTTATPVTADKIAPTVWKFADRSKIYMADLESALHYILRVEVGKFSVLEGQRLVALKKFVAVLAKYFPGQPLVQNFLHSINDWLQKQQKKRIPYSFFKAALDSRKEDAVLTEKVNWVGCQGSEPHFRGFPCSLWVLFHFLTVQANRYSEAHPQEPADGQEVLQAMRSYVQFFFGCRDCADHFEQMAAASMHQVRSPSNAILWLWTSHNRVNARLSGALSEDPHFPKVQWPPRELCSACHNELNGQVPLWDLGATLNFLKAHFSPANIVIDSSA
Kind of test: Oxygen consumption assay, MmQSOX1 mutant mimicking HsQSOX1. The class given is biochemical. The following applies: 250 nM MAb492.1, 200 μM DTT. The procedure:
as §1
(§5) The first mutant, A116P, was inhibited by about 60% (FIG. 2D), and the second mutant, TLPG(138-141)VFPV, by about 50%.

The target in test [6] is T4, MmQSOX1 A116P mutant (Mus musculus, UniProt Q8BND5).
T4 construct: made in house
T4 sequence (Q8BND5 36-550 A119P limits assumed): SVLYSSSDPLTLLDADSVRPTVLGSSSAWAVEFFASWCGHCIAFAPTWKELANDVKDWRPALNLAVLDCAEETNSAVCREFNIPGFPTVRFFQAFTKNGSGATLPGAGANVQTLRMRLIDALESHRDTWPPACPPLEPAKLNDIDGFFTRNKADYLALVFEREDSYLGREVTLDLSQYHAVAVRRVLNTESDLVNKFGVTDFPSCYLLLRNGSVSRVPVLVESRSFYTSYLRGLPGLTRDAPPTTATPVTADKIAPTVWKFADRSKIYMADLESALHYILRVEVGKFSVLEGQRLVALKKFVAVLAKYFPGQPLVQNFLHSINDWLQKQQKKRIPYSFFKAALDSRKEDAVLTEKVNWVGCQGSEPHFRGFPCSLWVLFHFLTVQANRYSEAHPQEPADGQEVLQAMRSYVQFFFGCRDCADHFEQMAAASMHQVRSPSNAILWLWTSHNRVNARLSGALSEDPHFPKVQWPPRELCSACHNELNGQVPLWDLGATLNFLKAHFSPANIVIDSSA
The description is as above. Format: biochemical. Particulars: 250 nM MAb492.1, 200 μM DTT. As to the method:
as §1, §5

The target of test [7] is T5, HsQSOX1 (Homo sapiens, UniProt O00391).
T5 construct: made in house
T5 sequence (O00391 33-546 limits assumed): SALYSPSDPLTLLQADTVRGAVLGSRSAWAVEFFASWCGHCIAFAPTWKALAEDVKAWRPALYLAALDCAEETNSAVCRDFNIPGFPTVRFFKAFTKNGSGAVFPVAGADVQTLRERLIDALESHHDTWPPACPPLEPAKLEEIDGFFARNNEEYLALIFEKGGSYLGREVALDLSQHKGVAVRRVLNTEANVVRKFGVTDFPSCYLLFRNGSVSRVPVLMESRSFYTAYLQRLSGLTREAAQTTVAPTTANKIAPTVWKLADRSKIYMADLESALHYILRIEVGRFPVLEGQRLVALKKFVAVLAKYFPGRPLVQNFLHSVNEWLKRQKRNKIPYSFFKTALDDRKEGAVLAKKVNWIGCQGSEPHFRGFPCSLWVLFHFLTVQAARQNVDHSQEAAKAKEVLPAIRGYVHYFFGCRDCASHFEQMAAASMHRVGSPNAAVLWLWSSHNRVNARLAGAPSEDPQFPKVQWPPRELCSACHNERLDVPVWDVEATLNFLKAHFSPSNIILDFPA
The following applies: Grossman I. et al. (2013); cited from earlier work.

The test system of test [8] is mouse embryonic fibroblasts (MEFs). Kind of test: Laminin immunostaining in mouse fibroblast cultures. Particulars: MEFs grown for three days in the presence of antibody. Format: cell-based. The procedure:
as §3, §4

The target in test [9] is T6, MmQSOX1 (Mus musculus, UniProt Q8BND5).
T6 construct: Recombinant MmQSOX1 is truncated at the carboxy-terminus and so migrates faster than endogenous secreted MmQSOX1; made in house
T6 sequence (Q8BND5 36-550 limits assumed): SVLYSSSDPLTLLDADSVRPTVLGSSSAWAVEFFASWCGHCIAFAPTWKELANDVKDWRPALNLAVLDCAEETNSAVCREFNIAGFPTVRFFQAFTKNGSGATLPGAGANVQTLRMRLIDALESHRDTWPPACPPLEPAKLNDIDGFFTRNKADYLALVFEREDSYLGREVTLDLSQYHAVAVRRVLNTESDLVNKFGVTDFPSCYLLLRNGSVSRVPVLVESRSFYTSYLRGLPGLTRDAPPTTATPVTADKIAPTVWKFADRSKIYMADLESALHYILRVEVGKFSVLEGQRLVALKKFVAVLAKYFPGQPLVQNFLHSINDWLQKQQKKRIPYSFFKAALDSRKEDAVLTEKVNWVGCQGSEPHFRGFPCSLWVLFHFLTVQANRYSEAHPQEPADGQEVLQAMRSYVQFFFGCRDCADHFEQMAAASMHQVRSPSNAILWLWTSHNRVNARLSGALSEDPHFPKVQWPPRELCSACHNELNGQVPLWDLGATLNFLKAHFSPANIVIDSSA
Kind of test: Oxygen consumption assay of QSOX1 activity and inhibition (DTT substrate). The class given is biochemical. Particulars: 10:1 molar ratio of antibody to enzyme.
Experimental: Twenty top binders were tested for MmQSOX1 inhibition in the in vitro oxygen consumption assay, in which hybridoma supernatants were mixed with 100 nM MmQSOX1 and 200 μm DTT.

Entries after “also recorded” stand apart in the source; their conditions may differ.

Turning to `COc1cccc2c1C(=O)c1c(O)c3c(c(O)c1C2=O)C[C@@](O)(C(=O)CO)C[C@@H]3O[C@H]1C[C@H](N)[C@H](O)[C@H](C)O1` [doxorubicin, reference compound], the Tumor volume entry in test [1] was “smaller tumors than control mice”.

B1: MAb492.1: previously published inhibitory monoclonal antibody blocking the Trx CXXC redox-active site of human QSOX1 (antibody, V domains shown)
VL: DVVMTQTHKFMSTSVGDRVSITCKASQDVSTAVAWYQQKSGQSPKLLIHSASYRYTGVPDRFTGSGSGTDFTFTISSVQAEDLAVYYCQQHYSIPLTFGAGTKLELK
VH: QVQLKQSGPGLVAPSQSLSITCTVSGFSLTGYGVNWVRQSPGKGLEWLGMIWGDGRTDYKSALKSRLSITKDNSKSQVFLKMNSLQTDDTARYFCASDYYGSGSFAYWGQGTLVTVSA
As to B1, the “Effect on RnQSOX1 activity” value in test [2] was “no effect”. Moreover, the “Effect on CpQSOX1 activity” value in test [3] is listed as “no effect”. Further, the “Epithelial cell adherence to MEF monolayer” value in test [4] is recorded as “did not affect”. In addition, the “Inhibition of MmQSOX1 TLPG(138-141)VFPV mutant” value in [5] is “about 50%”. Further, the “Inhibition of MmQSOX1 A116P mutant” value in [6] is “about 60%”. Also, the “Concentration inhibiting HsQSOX1 activity in vitro and in cell culture” value in [7] is recorded as “near-stoichiometric concentration”. In test [8], the “Laminin network in ECM” value was “did not affect”. In test [9], the “Inhibition of MmQSOX1 at 1 μM antibody” value is given as “no effect; also recorded: No inhibition at 1 μM”.
